From patent publication US20240279345A1, “ALPHA 5 BETA 1 INTEGRIN BINDING AGENTS AND USES THEREOF” (PASITHEA THERAPEUTICS CORP., priority 2021, published 2024) come the findings set out here.

One assay addresses rh-α5β1 (Homo sapiens, UniProt P05556+P08648). The assay is described as follows: Competition binding studies by Biolayer Interferometry (epitope groups). Conditions: for binding of rh-α5β1 complexed with antibody to C-14D12 on the sensor: C-14D12 immobilized on sensor; for Response (nm) / % Response: secondary mAb pre-mixed with 20 nM rh-α5β1; for % Response: relative to antigen alone; for epitope group: two epitope groups among 6 antibodies. The essentials:
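Pre-mixed competition BLI: FN-blocking lead antibodies A2-7A05, C-14D12 or A-15B08 loaded on sensors (700 s), quenched, baselined, then exposed 600 s to partner antibody preincubated 1 hr with rh-α5β1. Response relative to antigen alone: >120% = antibodies pair, <80% = antibodies block.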
For orientation: Biolayer interferometry detects binding as a change in optical thickness at a sensor tip.

The target in assay [1] is T1, recombinant human α5β1 integrin (rh-α5β1) (Homo sapiens, UniProt P05556+P08648).
T1 construct: purchased R&D Systems 3230-A5
T1 sequence (P08648 42-894 limits assumed): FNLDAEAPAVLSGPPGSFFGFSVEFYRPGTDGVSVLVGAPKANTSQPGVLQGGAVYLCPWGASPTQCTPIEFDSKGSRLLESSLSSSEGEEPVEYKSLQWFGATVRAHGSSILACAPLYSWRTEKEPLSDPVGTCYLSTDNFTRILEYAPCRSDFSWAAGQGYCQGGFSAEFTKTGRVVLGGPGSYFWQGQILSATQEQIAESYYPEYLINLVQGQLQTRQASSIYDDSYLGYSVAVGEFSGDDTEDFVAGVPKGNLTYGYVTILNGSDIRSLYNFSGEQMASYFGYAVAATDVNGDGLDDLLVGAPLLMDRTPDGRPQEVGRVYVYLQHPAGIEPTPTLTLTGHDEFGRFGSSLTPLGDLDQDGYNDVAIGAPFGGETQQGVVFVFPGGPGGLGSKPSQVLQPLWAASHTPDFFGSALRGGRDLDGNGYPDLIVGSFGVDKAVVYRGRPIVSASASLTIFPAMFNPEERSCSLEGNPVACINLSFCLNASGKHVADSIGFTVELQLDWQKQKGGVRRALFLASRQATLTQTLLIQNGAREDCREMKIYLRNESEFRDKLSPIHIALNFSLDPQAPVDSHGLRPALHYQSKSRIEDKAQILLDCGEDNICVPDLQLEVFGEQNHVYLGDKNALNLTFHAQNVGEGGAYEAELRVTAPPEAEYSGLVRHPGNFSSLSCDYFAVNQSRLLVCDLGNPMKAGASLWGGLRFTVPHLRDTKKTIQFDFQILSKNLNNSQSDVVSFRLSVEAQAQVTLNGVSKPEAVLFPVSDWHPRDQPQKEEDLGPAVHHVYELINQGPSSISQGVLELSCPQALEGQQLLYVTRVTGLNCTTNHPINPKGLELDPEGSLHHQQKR
T1 sequence (P08648 895-995 limits assumed): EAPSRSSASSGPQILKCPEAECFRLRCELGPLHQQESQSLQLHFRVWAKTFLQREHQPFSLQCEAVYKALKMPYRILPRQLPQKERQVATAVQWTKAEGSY
T1 sequence (P05556 21-728 limits assumed): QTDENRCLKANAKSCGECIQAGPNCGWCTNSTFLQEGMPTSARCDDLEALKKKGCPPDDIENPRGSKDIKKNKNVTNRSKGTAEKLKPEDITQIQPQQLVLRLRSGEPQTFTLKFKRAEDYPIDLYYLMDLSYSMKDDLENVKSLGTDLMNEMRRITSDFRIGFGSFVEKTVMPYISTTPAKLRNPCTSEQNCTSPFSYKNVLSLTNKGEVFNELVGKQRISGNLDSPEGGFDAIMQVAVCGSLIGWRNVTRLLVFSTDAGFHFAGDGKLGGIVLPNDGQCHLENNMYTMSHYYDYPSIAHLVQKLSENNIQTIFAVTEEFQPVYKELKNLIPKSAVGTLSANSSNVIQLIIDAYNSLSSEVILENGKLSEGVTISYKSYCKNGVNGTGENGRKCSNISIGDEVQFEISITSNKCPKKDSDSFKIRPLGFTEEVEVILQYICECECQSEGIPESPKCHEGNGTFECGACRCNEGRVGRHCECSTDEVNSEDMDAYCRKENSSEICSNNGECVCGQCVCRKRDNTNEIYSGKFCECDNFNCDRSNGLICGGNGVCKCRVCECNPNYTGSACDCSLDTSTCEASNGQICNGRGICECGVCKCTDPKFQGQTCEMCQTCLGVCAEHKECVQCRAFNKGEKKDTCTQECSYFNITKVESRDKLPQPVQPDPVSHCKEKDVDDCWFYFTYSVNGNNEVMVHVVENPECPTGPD
The assay is described as follows: Plate-based ELISA reactivity to rh-α5β1. In kind it is binding. Particulars: selected for further characterization among α5 specific hybridomas (28 selected). On the procedure: The 249 positive hybridoma supernatants selected as described in Example 1 were screened for reactivity to rh-α5β1 in a plate-based ELISA. Immulon4 HBX ELISA 96-well plates (Thermo Fisher Scientific, Waltham, MA, cat. no. 3855) were coated with rh-α5β1 (R&D Systems, Minneapolis, MN 55413, cat. no. 3230-A5), at 1 μg/mL in PBS supplemented with 0.5 mM MgCl2, MnCl2 and CaCl2 and incubated overnight at 4° C. Plates were washed 3 times with Wash Buffer (1× Tris Buffered Saline containing 0.05% Tween20), blocked with 2% BSA in 1×TBS (made from 10× Thermo Scientific Blocker BSA (10×) in TBS; Thermo Fisher Scientific, Waltham, MA, cat. no. 37520) for 2 hours at room temperature (RT) then incubated with hybridoma supernatants diluted 1:10 with Standard Diluent (2% BSA, 1×TBS, 0.05% Tween20). Following a 1 hour incubation at RT, wells were washed 3 times, incubated with biotinylated goat anti-mouse secondary antibody at 1:8000 dilution (Invitrogen, Carlsbad, CA, cat. no. 62-6540) for 1 hour, washed 3 times, then incubated for 30 minutes with poly-HRP Streptavidin (Thermo Fisher Scientific, Waltham, MA, cat. no. N200), washed 4 times, incubated with TMB (Thermo Fisher Scientific, Waltham, MA, cat. no. N301) for 5-10 minutes, followed by addition of ELISA Stop Solution (Invitrogen, Carlsbad, CA, cat. no. SS04). Absorbance 450 nm was measured.
In general terms: In an ELISA, binding on a coated surface is turned into a signal by an enzyme label.

Setting [2] is: antibody preincubated with rh-α5β1.

rh-α5β1, sequence (P08648 42-894 limits assumed): as the sequence (P08648 42-894 limits assumed) above
rh-α5β1, sequence (P08648 895-995 limits assumed): as the sequence (P08648 895-995 limits assumed) above
rh-α5β1, sequence (P05556 21-728 limits assumed): as the sequence (P05556 21-728 limits assumed) above

B1: A2-7A05: anti-α5β1 antibody, VH SEQ ID NO:77, VL SEQ ID NO:78; tested as mouse hybridoma antibody and as human IgG4 chimera (antibody, V domains shown)
VH: QVQLQQPGAELVKPGASVKLSCKASGYTFTIYWINWVKQRPGQGLEWIGKIYPGSISTDYNEKFKSKATLTVDTSSSTAYMQLSSLTSDDSAVYYCAITGTGGLAYWGQGTLVTVSA
VL: ENVLTQSPAIMSASLGEKVTMTCRASSSVNYMYWYQQKSDASPKLWIYFTSSLAPGVPGRFSGSGSGNSYSLTISTMEGEDAATYYCQQFTTSPFTFGSGTKLEIK
modifications: A2-7A05 VH Sequence; A2-7A05 VL Sequence
notes: tested as mouse hybridoma antibody and as human IgG4 chimera
Take B1: in the assay with rh-α5β1 (antibody preincubated with rh-α5β1, A-15B08 immobilized on sensor), the “binding of rh-α5β1 complexed with antibody to A-15B08 on the sensor” value is “able to bind”. Further, the “binding of rh-α5β1 complexed with antibody to C-14D12 on the sensor” value with rh-α5β1 (setting [2]) was “able to bind”. For the same molecule, the “Response (nm)” value with rh-α5β1 (immobilized mAb A2-7A05) is listed as −0.17 nm; in the assay with rh-α5β1 (immobilized mAb A-15B08), 0.31 nm; in the assay with rh-α5β1 (immobilized mAb C-14D12) it was 0.31 nm. For the same molecule, the results for the “% Response” value with rh-α5β1 (immobilized mAb A2-7A05), in the assay with rh-α5β1 (immobilized mAb A-15B08) and in the assay with rh-α5β1 (immobilized mAb C-14D12) were −451.35%, 150.63% and 139.39%, respectively. For the same molecule, the epitope group entry with rh-α5β1 is “one group”. For the same molecule, the “Selected Human α5 Specific” value in assay [1] is given as “Yes”.

B2: A-15B08: anti-α5β1 antibody, VH SEQ ID NO:25, VL SEQ ID NO:26; tested as mouse hybridoma antibody and as human IgG4 chimera (antibody, V domains shown)
VH: QVQLKESGPGLVAPSQSLSITCTISGFSLTSYGVHWVRQPPGKGLEWLVVIWSDGSTTYNSTLKSRLSISKDNSKSQVFFKMNSLQTDDTAMYYCARHYDYDGDWFAYWGQGTLVTVSA
VL: QIVLTQSPAIMSASLGERVTMTCTASSRVSSNSLHWYQQKPGSSPKLWIYSTSNLASGVPARFSGSGSGTSYSLTISSMEAEDAATYYCHQYLRSPPTFGGGTKLEIK
modifications: A-15B08 VH Sequence; A-15B08 VL Sequence
notes: as for B1
As for B2, the “binding of rh-α5β1 complexed with antibody to A2-7A05 on the sensor” value in the assay with rh-α5β1 (antibody preincubated with rh-α5β1, A2-7A05 immobilized on sensor) is “able to bind”. Further, the “binding of rh-α5β1 complexed with antibody to C-14D12 on the sensor” value in the assay with rh-α5β1 (setting [2]) was “not able to bind”. In addition, the “Response (nm)” value with rh-α5β1 (immobilized mAb A2-7A05) is 0.25 nm; with rh-α5β1 (immobilized mAb A-15B08), −0.15 nm; with rh-α5β1 (immobilized mAb C-14D12), −0.09 nm. Further, the “% Response” value in the assay with rh-α5β1 (immobilized mAb A2-7A05) is on record as 666.22%; with rh-α5β1 (immobilized mAb A-15B08) it was −73.81%; in the assay with rh-α5β1 (immobilized mAb C-14D12), −38.40%. Besides, in the assay with rh-α5β1, the epitope group result was “second group”.
